According to patent publication US20140309172:

Tests used:
[1] = biological target: alpha-synuclein (wild-type, full-length human α-synuclein)
[2] = biological target: T1, Ac-YVAD-AMC (model substrate, from Enzo, Inc.)
T1 chain: YVAD

B1: caspase-1 (ICE), purified, activated (protein)
chain: NPAMPTSSGSEGNVKLCSLEEAQRIWKQKSAEIYPIMDKSSRTRLALIICNEEFDSIPRRTGAEVDITGMTMLLQNLGYSVDVKKNLTASDMTTELEAFAHRPEHKTSDSTFLVFMSHGIREGICGKKHSEQVPDILQLNAIFNMLNTKNCPSLKDKPKVIIIQACRGDSPGVVWFKDSVGVSGNLSLPTTEEFEDDAIKKAHIEKDFIAFCSSTPDNVSWRHPTMGSVFIGRLIEHMQEYACSCDVEEIFRKVRFSFEQPDGRAQMPTTERVTLTRCFYLFPGH
[1]
  cleavage of alpha-synuclein in vitro (SDS-PAGE and western blotting with anti-synuclein antibody): Purified, activated caspase-1 does indeed cleave alpha-synuclein
[2]
  activity against a model substrate: 110 µM/min/mg
